4 substances from article PMC9784774 can be followed below.

A word on the Kd: it is the free concentration of one partner at which half of the binding sites on the other are occupied at equilibrium, for simple one-to-one binding. For orientation: koff means a measure of how fast the partners let go of each other. One may read the kon as a measure of how fast the partners come together.

The target of experiment [1] is recombinant gH/gL/gO trimer (human cytomegalovirus | human cytomegalovirus strain VR1814). Put plainly: SPR; Biacore X100, CM5 chip, RT, 1:1 binding model; methods: antibody (4 μg/mL) captured by anti-human Fc IgG to about 100 RU, pentamer or trimer in five 2-fold dilutions injected at 30 μL/min, 90 s association, 600 s dissociation (the legend of Fig. 5 tells the reverse orientation). (In general: Surface plasmon resonance follows binding to a sensor surface in real time, without labels.)

The next experiment addresses MAb MSL-109. Put plainly: ELISA. The note with it: read off a plot.

In the case of MAb MSL-109 (antibody), in experiment [1], the Kd was 20.7 nM, the off-rate constant (koff) came out at 0.00987 s⁻¹ and the kon came to 476000 M⁻¹ s⁻¹.
On to “recombinant gH/gL/UL128/UL130/UL131A pentamer (wild type) gH:D446A”, for which, in the experiment with MAb MSL-109, the percent of parent is 46%.
Still for that read-out and setting: as for “recombinant gH/gL/UL128/UL130/UL131A pentamer (wild type) gH:P171A”, the figure is 6%.
Still for that read-out and setting: the value for “recombinant gH/gL/UL128/UL130/UL131A pentamer (wild type) gH:W168A” was 3%.
